PMC2919099

Biological target: T1, DRH-3 (Caenorhabditis elegans (N2), UniProt Q93413 1-1119)
T1 sequence: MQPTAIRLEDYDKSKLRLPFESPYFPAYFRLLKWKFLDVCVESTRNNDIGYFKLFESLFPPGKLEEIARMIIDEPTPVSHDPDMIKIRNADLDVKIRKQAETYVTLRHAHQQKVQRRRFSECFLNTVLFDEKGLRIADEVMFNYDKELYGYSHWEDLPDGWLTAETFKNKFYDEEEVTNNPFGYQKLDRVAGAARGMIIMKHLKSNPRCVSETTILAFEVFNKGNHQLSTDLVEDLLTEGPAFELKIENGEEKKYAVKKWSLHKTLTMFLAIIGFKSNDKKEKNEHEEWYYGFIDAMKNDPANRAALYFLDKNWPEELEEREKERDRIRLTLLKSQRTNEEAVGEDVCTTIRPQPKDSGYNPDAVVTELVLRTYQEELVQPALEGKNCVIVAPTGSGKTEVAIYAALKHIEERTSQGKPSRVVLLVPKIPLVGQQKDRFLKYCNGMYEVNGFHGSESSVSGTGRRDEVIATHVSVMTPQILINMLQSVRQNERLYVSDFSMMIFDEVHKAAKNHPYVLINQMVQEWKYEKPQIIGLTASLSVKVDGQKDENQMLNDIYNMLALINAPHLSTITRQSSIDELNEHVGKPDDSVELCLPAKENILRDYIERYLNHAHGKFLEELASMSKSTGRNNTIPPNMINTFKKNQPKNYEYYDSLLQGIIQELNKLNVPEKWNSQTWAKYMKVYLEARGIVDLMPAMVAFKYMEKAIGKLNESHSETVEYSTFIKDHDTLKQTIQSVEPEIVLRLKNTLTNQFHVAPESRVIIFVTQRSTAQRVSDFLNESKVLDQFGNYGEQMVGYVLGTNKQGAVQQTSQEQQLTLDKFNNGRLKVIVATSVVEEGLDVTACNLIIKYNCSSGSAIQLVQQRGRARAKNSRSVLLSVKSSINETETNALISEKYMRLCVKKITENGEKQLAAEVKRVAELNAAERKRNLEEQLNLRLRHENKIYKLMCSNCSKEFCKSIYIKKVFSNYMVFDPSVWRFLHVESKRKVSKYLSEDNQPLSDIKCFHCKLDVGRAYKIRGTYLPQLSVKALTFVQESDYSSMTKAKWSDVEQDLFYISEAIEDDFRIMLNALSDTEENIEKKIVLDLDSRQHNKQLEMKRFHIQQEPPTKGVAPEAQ
Assay: EMSA

B1: ds25 RNA (25 bp) (dsRNA)
RNA 1: GGGUAUAGACUGACUAGGAUCUCCC
RNA 2: GGGAGAUCCUAGUCAGUCUAUACCC
**Q.** B1 was tested. Which Kd did it give?
**A.** 11 nM
